Experiments:
Experiment in all cases: cell-based or functional assay
[1] = molecular target: human CRF2-4 (IL10Rb) (human)
[2] = molecular target: T1, human zcytor19 (Zyctor19) cytokine receptor (human)
T1 sequence (Q8IU57 1-520, looked up): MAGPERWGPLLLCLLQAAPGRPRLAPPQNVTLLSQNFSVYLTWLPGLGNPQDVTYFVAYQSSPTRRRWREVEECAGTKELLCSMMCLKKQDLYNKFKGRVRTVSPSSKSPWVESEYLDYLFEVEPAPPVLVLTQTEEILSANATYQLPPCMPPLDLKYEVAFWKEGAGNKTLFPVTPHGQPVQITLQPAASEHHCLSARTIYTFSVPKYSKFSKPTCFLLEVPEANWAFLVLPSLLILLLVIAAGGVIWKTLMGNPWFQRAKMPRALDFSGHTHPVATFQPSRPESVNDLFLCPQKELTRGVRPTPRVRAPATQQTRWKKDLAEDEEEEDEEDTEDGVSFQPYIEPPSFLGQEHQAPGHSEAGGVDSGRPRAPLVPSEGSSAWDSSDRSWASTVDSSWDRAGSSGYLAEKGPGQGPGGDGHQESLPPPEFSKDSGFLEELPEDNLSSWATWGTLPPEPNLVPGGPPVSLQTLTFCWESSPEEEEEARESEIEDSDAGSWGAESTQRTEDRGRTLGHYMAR

[3] = molecular target: zcytoR19 and IL10Rb (CRF2-4) co-expressed on cells (heterodimeric receptor) (human)

Sequence of human CRF2-4 (IL10Rb) (human) (Q08334 whole entry): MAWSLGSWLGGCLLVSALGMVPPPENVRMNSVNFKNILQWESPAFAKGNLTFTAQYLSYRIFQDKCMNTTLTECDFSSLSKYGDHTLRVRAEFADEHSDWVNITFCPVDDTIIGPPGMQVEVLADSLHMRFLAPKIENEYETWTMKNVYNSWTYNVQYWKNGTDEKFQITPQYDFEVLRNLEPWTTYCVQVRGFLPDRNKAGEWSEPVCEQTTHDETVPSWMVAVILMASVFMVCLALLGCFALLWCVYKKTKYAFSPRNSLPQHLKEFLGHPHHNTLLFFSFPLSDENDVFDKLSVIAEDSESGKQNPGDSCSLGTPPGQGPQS
Sequence of zcyto21 (ligand) (Q8IU54 20-200): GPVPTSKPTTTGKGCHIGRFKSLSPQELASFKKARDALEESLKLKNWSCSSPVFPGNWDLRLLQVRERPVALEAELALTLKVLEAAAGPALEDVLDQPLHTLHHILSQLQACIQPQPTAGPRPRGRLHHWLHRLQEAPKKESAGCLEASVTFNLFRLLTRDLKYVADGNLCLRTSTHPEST

## zcyto20 (ligand)
[1]
  ISRE-luciferase fold induction, wild-type 293 cells, Zcyto20 0.01 ng/ml (fold induction): 1
  ISRE-luciferase fold induction, wild-type 293 cells, Zcyto20 0.01 ng/ml + IL10Rb neutralizing Antibody (fold induction): 0.8
  ISRE-luciferase fold induction, wild-type 293 cells, Zcyto20 0.1 ng/ml (fold induction): 1
  ISRE-luciferase fold induction, wild-type 293 cells, Zcyto20 0.1 ng/ml + IL10Rb neutralizing Antibody (fold induction): 1
  ISRE-luciferase fold induction, wild-type 293 cells, Zcyto20 1 ng/ml (fold induction): 1
  ISRE-luciferase fold induction, wild-type 293 cells, Zcyto20 1 ng/ml + IL10Rb neutralizing Antibody (fold induction): 0.9
  ISRE-luciferase fold induction, wild-type 293 cells, Zcyto20 10 ng/ml (fold induction): 4
  ISRE-luciferase fold induction, wild-type 293 cells, Zcyto20 10 ng/ml + IL10Rb neutralizing Antibody (fold induction): 0.9
  ISRE-luciferase fold induction, wild-type 293 cells, Zcyto20 100 ng/ml (fold induction): 8.4
  ISRE-luciferase fold induction, wild-type 293 cells, Zcyto20 100 ng/ml + IL10Rb neutralizing Antibody (fold induction): 0.8
  ISRE-luciferase fold induction, zcytoR19-overexpressing 293 cells, Zcyto20 0.01 ng/ml (fold induction): 1.1
  ISRE-luciferase fold induction, zcytoR19-overexpressing 293 cells, Zcyto20 0.01 ng/ml + IL10Rb neutralizing Antibody (fold induction): 1.2
  ISRE-luciferase fold induction, zcytoR19-overexpressing 293 cells, Zcyto20 0.1 ng/ml (fold induction): 6
  ISRE-luciferase fold induction, zcytoR19-overexpressing 293 cells, Zcyto20 0.1 ng/ml + IL10Rb neutralizing Antibody (fold induction): 1.1
  ISRE-luciferase fold induction, zcytoR19-overexpressing 293 cells, Zcyto20 1 ng/ml (fold induction): 68
  ISRE-luciferase fold induction, zcytoR19-overexpressing 293 cells, Zcyto20 1 ng/ml + IL10Rb neutralizing Antibody (fold induction): 1.3
  ISRE-luciferase fold induction, zcytoR19-overexpressing 293 cells, Zcyto20 10 ng/ml (fold induction): 97
  ISRE-luciferase fold induction, zcytoR19-overexpressing 293 cells, Zcyto20 10 ng/ml + IL10Rb neutralizing Antibody (fold induction): 23
  ISRE-luciferase fold induction, zcytoR19-overexpressing 293 cells, Zcyto20 100 ng/ml (fold induction): 91
  ISRE-luciferase fold induction, zcytoR19-overexpressing 293 cells, Zcyto20 100 ng/ml + IL10Rb neutralizing Antibody (fold induction): 60
[2]
  ISRE-luciferase fold induction, 293 cells transfected with ISRE-Luc./Zcytor19, Zcyto20 125 ng/ml (fold induction): 125
  ISRE-luciferase fold induction, BHK cells transfected with zcytoR19 alone, zcyto20 0.001 ng/ml (fold induction): 1.4
  ISRE-luciferase fold induction, BHK cells transfected with zcytoR19 alone, zcyto20 0.01 ng/ml (fold induction): 1.2
  ISRE-luciferase fold induction, BHK cells transfected with zcytoR19 alone, zcyto20 0.1 ng/ml (fold induction): 1.25
  ISRE-luciferase fold induction, BHK cells transfected with zcytoR19 alone, zcyto20 1 ng/ml (fold induction): 1.3
  ISRE-luciferase fold induction, BHK cells transfected with zcytoR19 alone, zcyto20 10 ng/ml (fold induction): 2.1
  ISRE-luciferase fold induction, BHK cells transfected with zcytoR19 alone, zcyto20 100 ng/ml (fold induction): 2.2
  ISRE-luciferase fold induction, BHK cells transfected with zcytoR19 alone, zcyto20 1000 ng/ml (fold induction): 2.25
[3]
  ISRE-luciferase fold induction, BHK cells transfected with zcytoR19 and IL10Rb (CRF2-4), zcyto20 0.001 ng/ml (fold induction): 1.5
  ISRE-luciferase fold induction, BHK cells transfected with zcytoR19 and IL10Rb (CRF2-4), zcyto20 0.01 ng/ml (fold induction): 1.6
  ISRE-luciferase fold induction, BHK cells transfected with zcytoR19 and IL10Rb (CRF2-4), zcyto20 0.1 ng/ml (fold induction): 2.1
  ISRE-luciferase fold induction, BHK cells transfected with zcytoR19 and IL10Rb (CRF2-4), zcyto20 1 ng/ml (fold induction): 2.5
  ISRE-luciferase fold induction, BHK cells transfected with zcytoR19 and IL10Rb (CRF2-4), zcyto20 10 ng/ml (fold induction): 2.4
  ISRE-luciferase fold induction, BHK cells transfected with zcytoR19 and IL10Rb (CRF2-4), zcyto20 100 ng/ml (fold induction): 2.6
  ISRE-luciferase fold induction, BHK cells transfected with zcytoR19 and IL10Rb (CRF2-4), zcyto20 1000 ng/ml (fold induction): 2.1

## zcyto10 (from UniProt Q9NYY1 25-176) (ligand)
[2]
  ISRE-luciferase fold induction, 293 cells transfected with ISRE-Luc./Zcytor19, Zcyto10 125 ng/ml (fold induction): 1

## huIL10 (from UniProt P22301 19-178) (ligand)
[2]
  ISRE-luciferase fold induction, 293 cells transfected with ISRE-Luc./Zcytor19, HuIL10 100 ng/ml (fold induction): 0.5

## zcyto20-CEE (ligand)
[1]
  Optical Density (570 nm) of EMCV-infected cells, HuzcytoR19-overexpressing 293 cells, Zcyto20-CEE 0.5 ng/ml, Anti-IL10Rb 5 µg/ml: 0.95 OD 570 nm
  Optical Density (570 nm) of EMCV-infected cells, HuzcytoR19-overexpressing 293 cells, Zcyto20-CEE 0.5 ng/ml, Anti-LeptinR control antibody 5 µg/ml: 2.24 OD 570 nm
  Optical Density (570 nm) of EMCV-infected cells, wild-type 293 cells, Zcyto20-CEE 200 ng/ml, Anti-IL10Rb 5 µg/ml: 0.94 OD 570 nm
  Optical Density (570 nm) of EMCV-infected cells, wild-type 293 cells, Zcyto20-CEE 200 ng/ml, Anti-LeptinR control antibody 5 µg/ml: 1.88 OD 570 nm

## zcyto21 (ligand)
[1]
  ISRE-luciferase fold induction, wild-type 293 cells, Zcyto21 0.001 ng/ml (fold induction): 1.2
  ISRE-luciferase fold induction, wild-type 293 cells, Zcyto21 0.001 ng/ml + IL10Rb neutralizing Antibody (fold induction): 1.3
  ISRE-luciferase fold induction, wild-type 293 cells, Zcyto21 0.01 ng/ml (fold induction): 1.2
  ISRE-luciferase fold induction, wild-type 293 cells, Zcyto21 0.01 ng/ml + IL10Rb neutralizing Antibody (fold induction): 1.3
  ISRE-luciferase fold induction, wild-type 293 cells, Zcyto21 0.1 ng/ml (fold induction): 1.1
  ISRE-luciferase fold induction, wild-type 293 cells, Zcyto21 0.1 ng/ml + IL10Rb neutralizing Antibody (fold induction): 1.3
  ISRE-luciferase fold induction, wild-type 293 cells, Zcyto21 1 ng/ml (fold induction): 1.5
  ISRE-luciferase fold induction, wild-type 293 cells, Zcyto21 1 ng/ml + IL10Rb neutralizing Antibody (fold induction): 1.3
  ISRE-luciferase fold induction, wild-type 293 cells, Zcyto21 10 ng/ml (fold induction): 3.2
  ISRE-luciferase fold induction, wild-type 293 cells, Zcyto21 10 ng/ml + IL10Rb neutralizing Antibody (fold induction): 1.4
  ISRE-luciferase fold induction, wild-type 293 cells, Zcyto21 100 ng/ml (fold induction): 4.1
  ISRE-luciferase fold induction, wild-type 293 cells, Zcyto21 100 ng/ml + IL10Rb neutralizing Antibody (fold induction): 1.8
  ISRE-luciferase fold induction, zcytoR19-overexpressing 293 cells, Zcyto21 0.001 ng/ml (fold induction): 1.1
  ISRE-luciferase fold induction, zcytoR19-overexpressing 293 cells, Zcyto21 0.001 ng/ml + IL10Rb neutralizing Antibody (fold induction): 1
  ISRE-luciferase fold induction, zcytoR19-overexpressing 293 cells, Zcyto21 0.01 ng/ml (fold induction): 1.5
  ISRE-luciferase fold induction, zcytoR19-overexpressing 293 cells, Zcyto21 0.01 ng/ml + IL10Rb neutralizing Antibody (fold induction): 1.1
  ISRE-luciferase fold induction, zcytoR19-overexpressing 293 cells, Zcyto21 0.1 ng/ml (fold induction): 3.5
  ISRE-luciferase fold induction, zcytoR19-overexpressing 293 cells, Zcyto21 0.1 ng/ml + IL10Rb neutralizing Antibody (fold induction): 1
  ISRE-luciferase fold induction, zcytoR19-overexpressing 293 cells, Zcyto21 1 ng/ml (fold induction): 35
  ISRE-luciferase fold induction, zcytoR19-overexpressing 293 cells, Zcyto21 1 ng/ml + IL10Rb neutralizing Antibody (fold induction): 5.8
  ISRE-luciferase fold induction, zcytoR19-overexpressing 293 cells, Zcyto21 10 ng/ml (fold induction): 48
  ISRE-luciferase fold induction, zcytoR19-overexpressing 293 cells, Zcyto21 10 ng/ml + IL10Rb neutralizing Antibody (fold induction): 28
  ISRE-luciferase fold induction, zcytoR19-overexpressing 293 cells, Zcyto21 100 ng/ml (fold induction): 45
  ISRE-luciferase fold induction, zcytoR19-overexpressing 293 cells, Zcyto21 100 ng/ml + IL10Rb neutralizing Antibody (fold induction): 31
[2]
  ISRE-luciferase fold induction, BHK cells transfected with zcytoR19 alone, zcyto21 0.001 ng/ml (fold induction): 1.3
  ISRE-luciferase fold induction, BHK cells transfected with zcytoR19 alone, zcyto21 0.01 ng/ml (fold induction): 1.4
  ISRE-luciferase fold induction, BHK cells transfected with zcytoR19 alone, zcyto21 0.1 ng/ml (fold induction): 1.4
  ISRE-luciferase fold induction, BHK cells transfected with zcytoR19 alone, zcyto21 1 ng/ml (fold induction): 2
  ISRE-luciferase fold induction, BHK cells transfected with zcytoR19 alone, zcyto21 10 ng/ml (fold induction): 2.4
  ISRE-luciferase fold induction, BHK cells transfected with zcytoR19 alone, zcyto21 100 ng/ml (fold induction): 2.6
  ISRE-luciferase fold induction, BHK cells transfected with zcytoR19 alone, zcyto21 1000 ng/ml (fold induction): 3.3
[3]
  ISRE-luciferase fold induction, BHK cells transfected with zcytoR19 and IL10Rb (CRF2-4), zcyto21 0.001 ng/ml (fold induction): 1.3
  ISRE-luciferase fold induction, BHK cells transfected with zcytoR19 and IL10Rb (CRF2-4), zcyto21 0.01 ng/ml (fold induction): 1.6
  ISRE-luciferase fold induction, BHK cells transfected with zcytoR19 and IL10Rb (CRF2-4), zcyto21 0.1 ng/ml (fold induction): 2.2
  ISRE-luciferase fold induction, BHK cells transfected with zcytoR19 and IL10Rb (CRF2-4), zcyto21 1 ng/ml (fold induction): 2.5
  ISRE-luciferase fold induction, BHK cells transfected with zcytoR19 and IL10Rb (CRF2-4), zcyto21 10 ng/ml (fold induction): 2.6
  ISRE-luciferase fold induction, BHK cells transfected with zcytoR19 and IL10Rb (CRF2-4), zcyto21 100 ng/ml (fold induction): 2.5
  ISRE-luciferase fold induction, BHK cells transfected with zcytoR19 and IL10Rb (CRF2-4), zcyto21 1000 ng/ml (fold induction): 2.2

Source: patent publication US20040029228A1
